Patent US20050113284A1, “Drug for regenerating tissue and vessel and method therefor” (priority 2001, published 2005)

B1: clone No. 3-309: prey protein: C-terminal 91 amino acids (amino acids 993-1083 of SEQ ID NO: 4) of the human c-Met β chain (protein, listed as Homo sapiens)
chain: RRLLQPEYCPDPLYEVMLKCWHPKAEMRPSFSELVSRISAIFSTFIGEHYVHVNATYVNVKCVAPYPSLLSSEDNADDEVDTRPASFWETS
B2: clone No. 3-312: prey protein: C-terminal 89 amino acids (amino acids 995-1083 of SEQ ID NO: 4) of the human c-Met β chain (protein, listed as Homo sapiens)
chain: LLQPEYCPDPLYEVMLKCWHPKAEMRPSFSELVSRISAIFSTFIGEHYVHVNATYVNVKCVAPYPSLLSSEDNADDEVDTRPASFWETS
B3: clone No. 2-22: prey protein: C-terminal 93 amino acids (amino acids 411-503 of SEQ ID NO: 10) of human MERMUC (protein, listed as Homo sapiens)
chain: SSRGTNSTLAKITTSAKTTMKPPTATPTTARTRPTTDVSAGENGGFLLLRLSVASPEDLTDPRVAERLMQQLHRELHAHAPHFQVSLLRVRRG
B4: prey DNA A: c-Met prey protein, amino acids 1003-1083 of SEQ ID NO: 4 (protein, listed as Homo sapiens)
chain: DPLYEVMLKCWHPKAEMRPSFSELVSRISAIFSTFIGEHYVHVNATYVNVKCVAPYPSLLSSEDNADDEVDTRPASFWETS
B5: prey DNA B: c-Met prey protein, amino acids 1013-1083 of SEQ ID NO: 4 (protein, listed as Homo sapiens)
chain: WHPKAEMRPSFSELVSRISAIFSTFIGEHYVHVNATYVNVKCVAPYPSLLSSEDNADDEVDTRPASFWETS
B6: prey DNA C: c-Met prey protein, amino acids 1023-1083 of SEQ ID NO: 4 (protein, listed as Homo sapiens)
chain: FSELVSRISAIFSTFIGEHYVHVNATYVNVKCVAPYPSLLSSEDNADDEVDTRPASFWETS
B7: prey DNA D: c-Met prey protein, amino acids 993-1073 of SEQ ID NO: 4 (protein, listed as Homo sapiens)
chain: RRLLQPEYCPDPLYEVMLKCWHPKAEMRPSFSELVSRISAIFSTFIGEHYVHVNATYVNVKCVAPYPSLLSSEDNADDEVD
B8: prey DNA E: c-Met prey protein, amino acids 993-1063 of SEQ ID NO: 4 (protein, listed as Homo sapiens)
chain: RRLLQPEYCPDPLYEVMLKCWHPKAEMRPSFSELVSRISAIFSTFIGEHYVHVNATYVNVKCVAPYPSLLS
B9: prey DNA F: c-Met prey protein, amino acids 993-1053 of SEQ ID NO: 4 (protein, listed as Homo sapiens)
chain: RRLLQPEYCPDPLYEVMLKCWHPKAEMRPSFSELVSRISAIFSTFIGEHYVHVNATYVNVK

Legend:
[1] = system: C-terminal region of human MERMUC (bait-2, bait-3); experiment: Yeast two hybrid screening of human kidney cDNA library with MERMUC baits; type: binding; conditions: for binding ability to the protein derived from bait-2: bait-2 = 123 amino acid portion of the C-terminus of human MERMUC; for binding ability to the protein derived from bait-3: bait-3 = 65 C-terminal amino acids of human MERMUC
Procedure: Specifically, yeast two hybrid system (Proc. Natl. Acad. Sci. USA., 1991, Vol.88, p.9578-9582) was performed to screen a human kidney cDNA library using cDNA corresponding to the C-terminal region of the human MERMUC as the bait (that is, fishing bait).
Two kinds of bait (bait-2 and bait-3) were designed using each of Ex.-2 and Ex.-3 as the core. Bait-2 corresponds to a 123 amino acid portion of the C-terminus (bait-2) and bait-3 corresponds to the 65 C-terminal amino acids (bait-3).
Each bait vector was obtained by inserting each DNA fragment obtained by digesting each of the PCR products with the restriction enzymes EcoRI and SalI into the EcoRI/SalI site of pGBKT7 vector (leucine biosynthesis gene as a marker; CLONTECH). In yeast, the gene within the vector is produced as a fusion protein ([fusion protein A]) with the DNA binding region (GAL4-DB) of the yeast transcription factor GAL4.
On the other hand, each cDNA of the human kidney derived cDNA library (CLONTECH) that is used for the screening with the bait vector is inserted in pADK vector (tryptophan biosynthesis gene as a marker). Therefore, proteins produced through the expression of each of these cDNAs in yeast are produced as a fusion protein ([fusion protein B]) with the GAL4 transcriptional activation region (GAL4-AD).
AH109 strain (leucine, tryptophan, histidine and adenine auxotrophic yeast; CLONTECH) was used as the yeast host. This yeast strain contains 3 types of genes (histidine biosynthesis gene, adenine biosynthesis gene and β-galactosidase gene) under the control of the GAL promoter on the chromosome.
The function as a transcription factor is recovered through the fusion of GAL4-DB and GAL4-AD by the binding of the bait protein (the fusion protein A) with the prey protein (the fusion protein B).
Each bait vector was introduced into yeast AH109 strain with the cDNA library plasmid mentioned above (50,000 clones per pool) by the polyethylene glycol/lithium acetate method for screening (J. Bacteriol., 1983, Vol. 153, p.163-16883; Curr. Genet., 1989, Vol. 16, p. 339-346; Nucleic Acids Res., 1991, Vol. 19, p. 5791; Nucleic Acids Res., 1992, Vol. 20, p.1425).
The marker for the first selection of yeast with the desired transformation in the present screening was acquired histidine non-requirement due to the expression of the histidine biosynthesis gene. Therefore, after introducing the plasmid, yeast was cultured for 5 days at 30° C. in yeast minimum medium that lacks leucine, tryptophan and histidine (SD/-Leu,-Trp,-His) used for selecting transformants.
Transformed yeast that grew on the plate upon cultivation were picked with toothpick and seeded on 3 kinds of plates described below, and then cultured for 5 days at 30° C. for a second selection of the desired clones: • <A> plate containing yeast minimum medium lacking leucine, tryptophan and histidine (SD/-Leu, -Trp, -His); • <B> plate containing yeast minimum medium lacking leucine, tryptophan and adenine (SD/-Leu, -Trp, -Ade); and • <C> plate containing yeast minimum medium lacking leucine and tryptophan, and supplemented with α-X-gal (20 ug/ml) (SD/-Leu, -Trp, +X-gal).
Positive clones were identified as colonies growing on both of the above-mentioned <A> and <B> plates (acquirement of histidine and adenine non-requirement) and showing blue color on plate <C> (α-X-gal addition) (expression of β-galactosidase activity). Four prey cDNA clones (clones No. 3-309, No. 3-312, No. 2-22 and No. 2-211) were selected as positive.

MERMUC bait protein = target: T1, MERMUC bait protein (Homo sapiens, UniProt Q8N307); experiment: Yeast two-hybrid binding of c-Met prey deletion proteins to MERMUC bait-2; conditions: yeast growth on SD/-Leu,-Trp,-His and SD/-Leu,-Trp,-Ade; human MERMUC bait-2
T1 construct: Bait-2 corresponds to a 123 amino acid portion of the C-terminus (bait-2); expressed in transfected cells; host or cells: yeast AH109 strain (pGBKT7 bait vector)
T1 sequence (Q8N307 587-709): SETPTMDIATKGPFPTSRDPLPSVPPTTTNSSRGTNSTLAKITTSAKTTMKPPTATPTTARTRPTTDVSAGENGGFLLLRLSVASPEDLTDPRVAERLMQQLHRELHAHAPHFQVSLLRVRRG
Procedure: The present invention was performed using the reported yeast two-hybrid system (Proc. Natl. Acad. Sci. USA., 1991, Vol. 88, p.9578-9582) based on conventional method and the experimental protocols appended to the reagents.
PCR was performed using DNA (clone No. 3-309) corresponding to the 91 amino acids (amino acids 993-1083 of SEQ ID NO: 4) of the C-terminal region of the human HGF receptor c-Met β chain that was identified in the previous Example to have the binding ability to the cytoplasmic region of human MERMUC as a template. Seven DNA fragments shown below corresponding to the C-terminal region of the c-Met β chain having various lengths, wherein various length of N-terminal or C-terminal amino acids are deleted from said 91 amino acids were prepared via a conventional method by PCR: • A. DNA corresponding to a region (amino acids 1003-1083 of SEQ ID NO: 4) that lacks the 10 N-terminal amino acids of the 91 amino acids of the C-terminal human c-Met β chain; • B. DNA corresponding to a region (amino acids 1013-1083 of SEQ ID NO: 4) that lacks the 20 N-terminal amino acids of the 91 amino acids of the C-terminal human c-Met β chain; • C. DNA corresponding to a region (amino acids 1023-1083 of SEQ ID NO: 4) that lacks the 30 N-terminal amino acids of the 91 amino acids of the C-terminal human c-Met β chain; • D. DNA corresponding to a region (amino acids 993-1073 of SEQ ID NO: 4) that lacks the C-terminal 10 amino acids of the 91 amino acids of the C-terminal human c-Met β chain; • E. DNA corresponding to a region (amino acids 993-1063 of SEQ ID NO: 4) that lacks the 20 C-terminal amino acids of the 91 amino acids of the C-terminal human c-Met β chain; • F. DNA corresponding to a region (amino acids 993-1053 of SEQ ID NO: 4) that lacks the 30 C-terminal amino acids of the 91 amino acids of the C-terminal human c-Met β chain; and • G. DNA corresponding to a region (amino acids 993-1043 of SEQ ID NO: 4) that lacks the 40 C-terminal amino acids of the 91 amino acids of the C-terminal human c-Met β chain.
Furthermore, the forward and reverse primers used for the PCR were designed to contain an EcoRI site and SalI site at their 5′ end, respectively. Each of the DNA fragments prepared by PCR were inserted into the EcoRI/SalI site of pADKT7 vector (a vector for a prey protein that contains a tryptophan biosynthesis gene as a marker; CLONTECH) in frame with GAL4-AD to prepare prey vectors wherein each of the 7 DNAs described above is inserted.
Each of the 7 prey vectors was cointroduced into yeast AH109 strain with the human MERMUC bait-2 vector prepared in Example 1.
The binding activity between the c-Met prey proteins derived from the 7 DNA fragments and the MERMUC bait protein was analyzed by the yeast two-hybrid system described in Example 1. Specifically, the binding activity was evaluated based on the growth of yeast transformed with the vector on 2 kinds of yeast minimum media, i.e., (1) SD/-Leu, -Trp, -His media and (2) SD/-Leu, -Trp, -Ade media.

Molecule	binding ability to the protein derived from bait-2 [1]	binding ability to the protein derived from bait-3 [1]	binding activity with MERMUC bait protein (MERMUC bait protein)
B1	had binding ability	had binding ability	–
B2	had binding ability	had binding ability	–
B3	had binding ability	–	–
B4	–	–	+ (bound) (+ (bound))
B5	–	–	+ (bound) (+ (bound))
B6	–	–	− (no binding)
B7	–	–	+ (bound) (+ (bound))
B8	–	–	+ (bound) (+ (bound))
B9	–	–	+ (bound) (+ (bound))
